The values below come from publication PMC2515629 (PLoS ONE, 2008).

A word on the Kd: it is a measure of binding affinity in units of concentration. In general, koff refers to a measure of how fast the partners let go of each other. For orientation: kon means the second-order rate constant of association.

In this experiment the target is T1, recombinant BoNT/A light chain (recombinant N-terminal domain of BoNT/A, amino acids 1-425) (Clostridium botulinum type A, …, UniProt P0DPI0).
T1 construct: source: E. coli, purified following published protocols
The experiment in a line: kinetic exclusion assay (KinExA). Particulars: both partners purified.

T1 sequence (P0DPI0 1-425): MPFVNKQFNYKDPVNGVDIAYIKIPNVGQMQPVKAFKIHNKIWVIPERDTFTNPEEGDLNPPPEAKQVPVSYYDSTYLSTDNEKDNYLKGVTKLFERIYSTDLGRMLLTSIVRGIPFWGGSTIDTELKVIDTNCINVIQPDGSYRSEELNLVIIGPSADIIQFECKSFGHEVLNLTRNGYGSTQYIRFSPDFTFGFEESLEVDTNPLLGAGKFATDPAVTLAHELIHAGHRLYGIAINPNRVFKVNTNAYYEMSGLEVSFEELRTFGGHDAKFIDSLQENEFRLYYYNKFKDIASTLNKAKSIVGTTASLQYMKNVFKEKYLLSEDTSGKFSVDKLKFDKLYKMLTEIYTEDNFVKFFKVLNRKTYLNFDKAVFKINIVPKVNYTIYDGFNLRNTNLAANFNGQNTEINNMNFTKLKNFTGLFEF

B1: 4LCA antibody (antibody, V domains shown)
VH: QLQLQESGPGLVKPSETLSLTCTVSGGSISSSSYFWGWIRQPPGKGLEWIGYIHYSGNTYYNPSLTSRVTMSVDKSKNQFSLKLTSVTAADTALYSCATFLGRGAPFDPWGQGTLVTVSS
VL: QPPSVSVAPGQTARITCGGTNIGSKSVHWYQRQPGQAPVLVIYYDTDRPSGIPERFSGSNSENTATLTISRVEAGDEADYYCQVWGSGSDHPGVFGGGTKLTVL
notes: also called 4LCA mAb; 4LCA human monoclonal antibody
Turning to B1, the Kd stood at 0.031 nM, the koff was determined as 7.1e-05 s⁻¹ and the kon was 2.3e+06 M⁻¹ s⁻¹.
